According to the domain aggregation screens of Martell et al. (2025):

test: soluble fraction after stress (log2 fold change); higher = more stays soluble; pooled small domains, quantitative proteomics; conditions: stress: 50 degC
Procedure, shortened: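 The stress applied to every library was 50°C. These custom libraries of small protein domains were pooled and measured at high throughput with quantitative proteomics as the read-out. Aggregation propensity is expressed as the base-two logarithm of the fold change in how much of each protein remains soluble. The higher the value, the more of that protein stays in solution.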

Sequence | soluble fraction (log2)
HMLLRSEDAIELGKSQLEDALAPYKIETLDTGTVQQLLDSLKLNSLESLYQEIGLGNRMSTIIAHRLLGE | -0.156
HMGTGVEQGKQYRTLKRDFDGASGIKVNGDFYRLRTSDTGMTELPAGTEVTFERFDGTTAVVHT | -0.0841
HMPRSLGADLRAIRKGRRLTLTDMAEALDRSVGWVSQVERDISTPSISDLRRMAEILDVPVSLLFG | -2.87
HMTDLEDDEKKVYRLIVESGEGIDFDTLSERSGFSATELPSILLFLMMKEMIDELPGKIYRYSE | 0.0814
HMNPEAFIQTLKQILSTYEKNDPIYLQEIKADLVKKFRIEIPINALETYLKENGYSNIYLKR | -0.133
HMDYKLDVNFPEMYLEQIPAEKRAALIQILEQDPRPSYQKDPVRIYGMSYAGMEIHFRVDKETLYVTEVER | -0.996
HMVTLPLLKRGHTGLPVKALQTLLVLRGMSVDVDGSFGEKTESAVRTFQTAAKILSDGEVGKDTWKALI | -1.43
HMNRNHVFDSNGPDLRLRGTAQQLFEKYLQLGRDATSGGDRVMAEGYFQHAEHYFRILNAMNQAAMQH | -0.68
HMWQPIKLDRGDWQNSLQVGDRVFVRGIPRPVEILSAVDEENNIEVLMGTMRAKIPVYQLDKPAENFIDTT | -0.15
HMSSHSAEAVRHRIKSMIDHEARDGDVLSDDRIVELLNQAGIDIARRTVAKYREALRIPSSVERKRRLKA | 0.0377
HMDNFDVVLTSPGDQKVQVIKAVRSITGLGLKEAKDLVDGAPNTVKEGVKKLDAEEMLKQLTEAGATGEL | 0.296
HMMTDEEFLRIAGYMKQRYGIDLGQKKVIMNGRLENHIKSGGWSSFHAFMNDLEKDSSGKLEKELVNLLTT | 0.0314
HMFENPRALLEMMISLGNEQGLINMARDIVSAGEFRRLELAAGGDRRKLARMLIDHLVEVAPRLP | -0.394
HMKMLKAPIPGTIIEVKVNPGQTVNDGDVAVVLEAMKMESDIHFNSSGKVKKIHVNKGDSVQEGDDLIELE | 0.0938
HMSTLTLTSGTYAVGENIKAGKYTIMGSGSIAISSSGKARVNSNLTADRKDYVLNDDETIKIKGKAQFIPI | 0.11
HMNLDVEQIKKEALNQLIEIGNENDGIVTIKDFKKIDDISSLDEDDIEDIRNLLIENNIEIFE | 0.127
HMNTLRFPEGTPEKDRMSIILASYNSGIGHVNDARRLARLNGEDPNSWEVVARYLQLKAQPEYYESEAVK | -0.0728
HMYKNAFITYDNNLYYLGSDSKMAIGWQSIGGNTYYFRNWGGMITGKQVIDGKTYVFDEDGKLVQSPD | -1.12
HMNKLIIDAAEDKIFFMIMNNDISYNISHENTKINFEKLIILINDFLSSKKLKINDITGLYV | 0.067

Sequence | soluble fraction (log2)
HMSEILQLINKIDKKLEKGYTFANISRNHYEKIYKEEILNLYKTSKLKGEAEDSIKEVLESLLGDLRKP | 0.0222
HMGTTTGKVNATGVNFRTGPSTSYSSMGKLGIDTAVTILGKSGDWYQVKVNSTGKTGYVFAKYITITSVV | -0.0946
HMNQTGQYENAAKRFNQLITIDSSDKRAYLQLGISNYNLGNKEKADSLFNIIRNSKDKLLIEELDNFLT | 0.0481
HMDHKSSYWSVKEANLFPELLKQFGSQWSLISDKLGTKSTTMVRNYYQRNAAQLGWKSVVEEADFKRNA | -0.436
HMTAQLSITLNGETRRAAAGSIADLVRSLELDPAKVAVERNGLIVPRSTLAEVALGDGDVLEIVHFV | -0.186
HMQNNTIAFSKFLQEVDNGRVVQVEIQGNNINGILSDGSKFNTYSPNYPALVEKLSEKNVNIVASPV | 0.0149
HMGLLGTDISAETMIGYFKKIDLGFDEETQEVIVPSWRQDLLRDADIAEEVARFYGYDNIPTTLPSGEST | -0.122
HMNPGQIIRKLRQDQGMTLAVLAKYANLDPGNLSRIERDDLNISFNLLEKLSLILNVSPIVFFH | -0.154
HMAHRYQQIADDLGRRVEAGEFAAGRLLPSEATLSGQYKASRVTVRKALEALRTDGLVESRQGFGWFVAAD | -0.379
HMLKVHPRDQEENRLLLLKGERLYEESTGDTRVMIDMWLRKFEEALNSRSRENIEDARRELKEQLAELDN | -0.00144
HMSYQNKLNYLINAFGGADNFQKLLGVGPSAISNYKSRKHLPLNQAKRLSKIAPQFGFSLDPHSLQIST | -0.377
HMKIDEVSFAYIERTLFSMLGKLPTPVNKVIATIGEEKKETIWEVIRFLESENKLITNEDGTLQL | -1.55
HMKEQLEAYVNRLFADAALTIRNAEVRQEILQHALDRYDDLIASGKTEQEAYDETVSGIGDVSGLYEHK | -0.195
HMVDIGQSIRVELIREGKDSHQAVGYLRDGSMVVVNHGRKLIGSTVEVEITSIVPSSAGKVIFAEYLE | -0.378
HMAAMSLGERIGAHRKRMGISQEELGHRMGVSRQAVSKWETGRAVPDMENLLALARLFGVPVSELAD | -0.177
HMAVKPIDRLRSLMAESNVTDAELQKVVADKGHYAADAPIDSYSEKFISGWLIKYWSQILNLINADRTVL | -0.0363
HMAVVEVATTTATEYKVEKGHHFKVGDFVMFKTGAKSYAITAIDTTSPIFDKITVGTTLGEAIPVGGTLM | -1.38
HMIPYQDPLPKGAEESLLSKYPGFEITGVHFVNDTNFIGYKVRLERGEDREEISLDVNGKFL | 0.0829
HMLFYSDLVRLISFAEATLGKNEFETWYMSHHQGMKYTEIAIALGISVRTVEDRIARTKNHFRKI | -0.494
